The test system of one series is CFTR W1282X. Briefly: CFTR W1282X rescue, western blot of B and C bands, HEK cells. In kind it is cell-based, human. To be noted: co-expression with CFTR W1282X cDNA in HEK cells. The procedure:
To assess is these novel tRNA could rescue CFTR channels harboring nonsense codons, they were co-expressed in mammalian HEK cells with a CFTR W1282X cDNA plasmid. The cellular preparations were analyzed by standard biochemical approaches via Western blot assessment of CFTR protein. […] Specifically, the “B” and “C” bands represent the full-length and fully mature, post-translationally proceeded CFTR protein at the cell surface, respectively. […] FIG. 9.
For expression in mammalian cells, the cDNA for the coding region and 200 base-pair of the 3′ untranslated region (UTR) of human CFTR was ligated into pcDNA3.1(+) (Promega, USA) using the KpnI and XbaI restriction enzymes. The G542tga and W1282tga mutations were introduced using QuickChange XL II (Stratagene, USA). For expression in Xenopus laevis oocytes, the cDNA for the coding region and 140 base-pair of the 5′ and 244 base-pair 3′ UTR of human CFTR was ligated into pGEM-HE (Promega, USA). Bothe the G542tga and W1282tga mutations were introduced using QuickChange XL II. The cDNA encoding the E. coli histidinol dehydrogenase was codon optimized for Mus musculus and synthesized (BioBasic Inc, Canada) with a c-terminal 8×His-Strep-tag (“8×His” disclosed as SEQ ID NO: 647) for protein purification from mammalian cells. The synthesized cDNA was ligated into pcDNA3.1(+) using EcoRI and XhoI restriction sites. […]
Background: Immunoblotting shows a protein as a band on a membrane.

A further series has as its system NanoLuc-TGA, TAA or TAG. The class given is cell-based, human. The conditions noted are these: transiently transfected HEK293 cells; listed as Glychr19.t2.

B1: Glychr19.trna2: top performing glycine ACE-tRNA UGA, SEQ ID NO: 53 (nucleic acid)
chain: GCGUUGGUGGUAUAGUGGUUAGCAUAGCUGCCUUCAAAGCAGUUGACCCGGGUUCGAUUCCCGGCCAACGCA
modifications: chemistry not given here
Turning to B1, the “rescue of CFTR protein, B and C bands” value in the series on CFTR W1282X is “robust populations of ‘B’ and ‘C’ CFTR immunopositive”. Moreover, the “stop codon selectivity (UGA over UAA and UAG)” value in the series on NanoLuc-TGA, TAA or TAG is “selectively suppresses the UGA stop codon”.

For the origin of these results see patent US12559749B2, “Methods of rescuing stop codons via genetic reassignment with ACE-tRNA” (UNIVERSITY OF IOWA RESEARCH FOUNDATION, priority 2017, dated 2026).
